T1: His6-Cdc12 (Saccharomyces cerevisiae, UniProt P32468 1-407)
T1 sequence: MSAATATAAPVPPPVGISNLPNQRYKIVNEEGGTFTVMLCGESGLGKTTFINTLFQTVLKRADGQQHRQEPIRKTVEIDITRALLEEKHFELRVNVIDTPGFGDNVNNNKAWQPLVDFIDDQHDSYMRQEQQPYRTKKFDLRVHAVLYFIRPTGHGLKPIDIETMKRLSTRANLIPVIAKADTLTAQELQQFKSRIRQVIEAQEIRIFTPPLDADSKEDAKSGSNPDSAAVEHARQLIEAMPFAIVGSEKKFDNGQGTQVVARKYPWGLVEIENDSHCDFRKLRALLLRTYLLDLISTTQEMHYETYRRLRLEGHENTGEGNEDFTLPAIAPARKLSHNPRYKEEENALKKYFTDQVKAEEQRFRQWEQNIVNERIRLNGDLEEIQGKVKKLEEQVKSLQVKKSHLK

B1: Shs1 (natural protein)
chain: MSTASTPPINLFRRKKEHKRGITYTMLLCGPAGTGKTAFANNLLETKIFPHKYQYGKSNASISSNPEVKVIAPTKVVSFNSKNGIPSYVSEFDPMRANLEPGITITSTSLELGGNKDQGKPEMNEDDTVFFNLIMTHGIGENLDDSLCSEEVMSYLEQQFDIVLAEETRIKRNPRFEDTRVHVALYFIEPTGHGLREVDVELMKSISKYTNVLPIITRADSFTKEELTQFRKNIMFDVERYNVPIYKFEVDPEDDDLESMEENQALASLQPFAIITSDTRDSEGRYVREYPWGIISIDDDKISDLKVLKNVLFGSHLQEFKDTTQNLLYENYRSEKLSSVANAEEIGPNSTKRQSNAPSLSNFASLISTGQFNSSQTLANNLRADTPRNQVSGNFKENEYEDNGEHDSAENEQEMSPVRQLGREIKQENENLIRSIKTESSPKFLNSPDLPERTKLRNISETVPYVLRHERILARQQKLEELEAQSAKELQKRIQELERKAHELKLREKLINQNKLNGSSSSINSLQQSTRSQIKKNDTYTDLASIASGRD
B2: Shs1(Δ349–551) (domain or fragment)
chain: MSTASTPPINLFRRKKEHKRGITYTMLLCGPAGTGKTAFANNLLETKIFPHKYQYGKSNASISSNPEVKVIAPTKVVSFNSKNGIPSYVSEFDPMRANLEPGITITSTSLELGGNKDQGKPEMNEDDTVFFNLIMTHGIGENLDDSLCSEEVMSYLEQQFDIVLAEETRIKRNPRFEDTRVHVALYFIEPTGHGLREVDVELMKSISKYTNVLPIITRADSFTKEELTQFRKNIMFDVERYNVPIYKFEVDPEDDDLESMEENQALASLQPFAIITSDTRDSEGRYVREYPWGIISIDDDKISDLKVLKNVLFGSHLQEFKDTTQNLLYENYRSEKLSSVANAEEIGP
B3: Cdc11 (natural protein)
chain: MSGIIDASSALRKRKHLKRGITFTVMIVGQSGSGRSTFINTLCGQQVVDTSTTILLPTDTSTEIDLQLREETVELEDDEGVKIQLNIIDTPGFGDSLDNSPSFEIISDYIRHQYDEILLEESRVRRNPRFKDGRVHCCLYLINPTGHGLKEIDVEFIRQLGSLVNIIPVISKSDSLTRDELKLNKKLIMEDIDRWNLPIYNFPFDEDEISDEDYETNMYLRTLLPFAIIGSNEVYEMGGDVGTIRGRKYPWGILDVEDSSISDFVILRNALLISHLHDLKNYTHEILYERYRTEALSGESVAAESIRPNLTKLNGSSSSSTTTRRNTNPFKQSNNINNDVLNPASDMHGQSTGENNETYMTREEQIRLEEERLKAFEERVQQELLLKRQELLQREKELREIEARLEKEAKIKQEE

Biological target: T1, His6-Cdc12
Assay: negative-stain EM, single-particle class averages

percent of particles that are heptamers	percent of particles that are hexamers	percent of particles that are octamers	Binder
15%	38%	47%	B1
–	–	72%	B2
10%	4%	86%	B3

Source: paper PMC3241732 (The Journal of Cell Biology, 2011)
